The numbers were not newly measured in article PMC5342629, which cites them from elsewhere.

The term Kd denotes a measure of binding affinity in units of concentration.

Data set [1] concerns the target Cdc4 (Saccharomyces cerevisiae) (UniProt P07834).
The target is the same in data set [2]. This is another data set of the same source.
For data set [3] the target is unchanged. This is another data set of the same source.

Like-named read-outs stand apart in the source and are kept apart here.

Chain of UniProt P07834 (P07834 whole entry): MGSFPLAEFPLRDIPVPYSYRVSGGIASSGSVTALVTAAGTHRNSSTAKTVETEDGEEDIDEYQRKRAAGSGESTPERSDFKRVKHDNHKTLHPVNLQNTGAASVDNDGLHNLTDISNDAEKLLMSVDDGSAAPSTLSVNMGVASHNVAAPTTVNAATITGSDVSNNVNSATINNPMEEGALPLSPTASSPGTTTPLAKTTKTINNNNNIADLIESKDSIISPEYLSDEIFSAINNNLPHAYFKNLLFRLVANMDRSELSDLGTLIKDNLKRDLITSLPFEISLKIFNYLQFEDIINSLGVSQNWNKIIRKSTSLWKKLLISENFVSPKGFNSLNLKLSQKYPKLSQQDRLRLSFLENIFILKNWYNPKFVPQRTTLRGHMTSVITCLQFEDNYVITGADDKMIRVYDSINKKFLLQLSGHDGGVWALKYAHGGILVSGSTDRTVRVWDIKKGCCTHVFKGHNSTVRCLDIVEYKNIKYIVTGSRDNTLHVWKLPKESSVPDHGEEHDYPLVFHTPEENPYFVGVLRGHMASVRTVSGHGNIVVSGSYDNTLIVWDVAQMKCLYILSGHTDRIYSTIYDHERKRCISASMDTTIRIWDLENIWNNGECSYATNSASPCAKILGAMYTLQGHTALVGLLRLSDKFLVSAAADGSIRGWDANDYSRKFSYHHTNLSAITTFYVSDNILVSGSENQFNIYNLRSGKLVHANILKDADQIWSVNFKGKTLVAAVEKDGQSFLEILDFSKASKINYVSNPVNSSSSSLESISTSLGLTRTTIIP

On to “Sic1 20-residue peptide (from UniProt P38634)”, for which, in data set [1], the Kd was 2.4 µM.
Sic1 (from UniProt P38634): the values for the dissociation constant Kd in data set [2] and in data set [3] were greater than 50 µM and 1 µM, respectively.
